From the supplement of paper PMC7877785
± gives the uncertainty stated by the source.

Assay: self-splicing fitness, log relative to wild type (ln ratio); higher = more splicing; Tetrahymena group I intron in knt gene, E. coli kanamycin selection, DiMSum; sequences stand for … in CUCUCU…GGAGGGAAAAGUUAUCAGGCAUGCACCUGGUAGCUAGUCUUUAAACCAAUAGAUUGCAUCGGUUUAAAAGGCAAGACCGUCAAAUUGCGGGAAAGGGGUCAACAGCCGUUCAGUACCAAGUCUCAGGGGAAACUUUGAGAUGGCCUUGCAAAGGGUAUGGUAAUAAGCUGACGGACAUGGUCCUAACCACGCAGCCAAGUCCUAAGUCAACAGAUCUUCUGUUGAUAUGGAUGCAGUUCACAGACUAAAUGUCGGUCGGGGAAGAUGUAUUCUUCUCAUAAGAUAUAGUCGGACCUCUCCUUAAUGGGAGCUAGCGGAUGAAGUGAUGCAACACUGGAGCCGCUGGGAACUAAUUUGUAUGCGAAAGUAUAUUGAUUAGUUUUGGAGUACUCGUGGUCG
Outline: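 Fitness was computed with DiMSum as the error-weighted combination of replicate fold changes, kanamycin versus none, each normalised to wild type. The library randomised all eight intron nucleotides of the P1ex region, with the intron placed in the knt kanamycin-resistance gene on pET-22b(+) in E. coli BL21(DE3). Six replicate transformations were grown overnight at 37°C or 30°C on LB agar with or without 25 μg/mL kanamycin, plus 100 μg/mL carbenicillin, 50 μM IPTG and 0.2% rhamnose. Pooled colonies were amplicon-sequenced on an Illumina HiSeq 2500.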

Row | Sequence | self-splicing fitness (ln) (30 °C) | self-splicing fitness (ln) (37 °C)
1 | CGUAAGCAAUAUUACGGGUG | -1.64 ± 0.057 | -0.924 ± 0.057
2 | CGUAAGCAAUAUUACGUAUC | -3.12 ± 0.24 | -3.6 ± 0.24
3 | CGUAAGCAAUAUUACGUCUG | -0.285 ± 0.085 | 0.29 ± 0.1
4 | CGUAAGCAAUAUUACGUUAC | -3.56 ± 0.26 | -2.03 ± 0.28
5 | CGUAAGCAAUAUUACGUUCA | -1.64 ± 0.14 | -0.74 ± 0.13
6 | CGUAAGCAAUAUUACGUUCU | -1.61 ± 0.13 | -0.0321 ± 0.12
7 | CGUCAGCAAUAUUACGAACC | -1.37 ± 0.41 | 0.157 ± 0.37
8 | CGUCAGCAAUAUUACGAAGU | -3.92 ± 0.19 | -2.94 ± 0.21
9 | CGUCAGCAAUAUUACGAGAG | -2.91 ± 0.15 | -2.76 ± 0.25
10 | CGUCAGCAAUAUUACGCAGU | -2.96 ± 0.2 | -2.12 ± 0.18
11 | CGUCAGCAAUAUUACGCAUA | -2.88 ± 0.32 | -2.59 ± 0.19
12 | CGUCAGCAAUAUUACGCCUU |  | -1.94 ± 0.2
13 | CGUCAGCAAUAUUACGCGAA | -2.93 ± 0.21 | -2.51 ± 0.19
14 | CGUCAGCAAUAUUACGCGGG | -3.87 ± 0.24 | -2.94 ± 0.21
15 | CGUCAGCAAUAUUACGCUGC | -2.95 ± 0.26 | -2.22 ± 0.35
16 | CGUCAGCAAUAUUACGCUGU | -4.26 ± 0.33 | -1.51 ± 0.27
17 | CGUCAGCAAUAUUACGGAAA | -2.57 ± 0.3 | -2.38 ± 0.37
18 | CGUCAGCAAUAUUACGGACG | -3.63 ± 0.32 | -1.95 ± 0.23
19 | CGUCAGCAAUAUUACGGAUA | -1.02 ± 0.079 | -0.231 ± 0.086

Row | Sequence | self-splicing fitness (ln) (30 °C) | self-splicing fitness (ln) (37 °C)
20 | CGUCAGCAAUAUUACGGCCG | -0.623 ± 0.12 | 0.482 ± 0.15
21 | CGUCAGCAAUAUUACGUAUU | -2.83 ± 0.13 | -1.84 ± 0.14
22 | CGUCAGCAAUAUUACGUCCA | -1.97 ± 0.085 | -1.36 ± 0.11
23 | CGUCAGCAAUAUUACGUCUC | -2.87 ± 0.24 | -0.999 ± 0.14
24 | CGUCAGCAAUAUUACGUCUG | -0.234 ± 0.062 | 0.106 ± 0.08
25 | CGUCAGCAAUAUUACGUGAC | -3.29 ± 0.18 | -2.82 ± 0.23
26 | CGUCAGCAAUAUUACGUGGA | -3.65 ± 0.24 | -0.946 ± 0.17
27 | CGUCAGCAAUAUUACGUGGG | -2.31 ± 0.093 | -1.7 ± 0.1
28 | CGUCAGCAAUAUUACGUUAC | -2.78 ± 0.21 | -3.22 ± 0.24
29 | CGUCAGCAAUAUUACGUUUC | -3 ± 0.14 | -3.06 ± 0.21
30 | CGUGAGCAAUAUUACGAAAC |  | -0.708 ± 0.31
31 | CGUGAGCAAUAUUACGAAAG | -1.89 ± 0.17 | -0.94 ± 0.16
32 | CGUGAGCAAUAUUACGAAGG | -2.37 ± 0.14 | -1.42 ± 0.14
33 | CGUGAGCAAUAUUACGAUCA | -2.06 ± 0.14 | -0.309 ± 0.12
34 | CGUGAGCAAUAUUACGCGCA | -0.962 ± 0.38 | -0.382 ± 0.27
35 | CGUGAGCAAUAUUACGCGUU | -3.11 ± 0.28 | -2.72 ± 0.2
36 | CGUGAGCAAUAUUACGGACC | -2.51 ± 0.49 | 
37 | CGUGAGCAAUAUUACGGCAG | -0.858 ± 0.11 | -0.441 ± 0.14
38 | CGUGAGCAAUAUUACGGCGU | -2.44 ± 0.18 | -1.32 ± 0.17
